{"source": "patent US20210340548A1"}
{"molecular_target": "Cry2 PHR (L348F)-p65AD-NLSx2 fusion construct as released from the TetR (I194T, 1-206)-CIB1 (-NLS)-T2A-Cry2 PHR (L348F)-p65AD-NLSx2 fusion construct", "sequence (Q96524 other isoform, or with tags, fused parts or gaps L348F I194T L348F L348F I194T L348F)": "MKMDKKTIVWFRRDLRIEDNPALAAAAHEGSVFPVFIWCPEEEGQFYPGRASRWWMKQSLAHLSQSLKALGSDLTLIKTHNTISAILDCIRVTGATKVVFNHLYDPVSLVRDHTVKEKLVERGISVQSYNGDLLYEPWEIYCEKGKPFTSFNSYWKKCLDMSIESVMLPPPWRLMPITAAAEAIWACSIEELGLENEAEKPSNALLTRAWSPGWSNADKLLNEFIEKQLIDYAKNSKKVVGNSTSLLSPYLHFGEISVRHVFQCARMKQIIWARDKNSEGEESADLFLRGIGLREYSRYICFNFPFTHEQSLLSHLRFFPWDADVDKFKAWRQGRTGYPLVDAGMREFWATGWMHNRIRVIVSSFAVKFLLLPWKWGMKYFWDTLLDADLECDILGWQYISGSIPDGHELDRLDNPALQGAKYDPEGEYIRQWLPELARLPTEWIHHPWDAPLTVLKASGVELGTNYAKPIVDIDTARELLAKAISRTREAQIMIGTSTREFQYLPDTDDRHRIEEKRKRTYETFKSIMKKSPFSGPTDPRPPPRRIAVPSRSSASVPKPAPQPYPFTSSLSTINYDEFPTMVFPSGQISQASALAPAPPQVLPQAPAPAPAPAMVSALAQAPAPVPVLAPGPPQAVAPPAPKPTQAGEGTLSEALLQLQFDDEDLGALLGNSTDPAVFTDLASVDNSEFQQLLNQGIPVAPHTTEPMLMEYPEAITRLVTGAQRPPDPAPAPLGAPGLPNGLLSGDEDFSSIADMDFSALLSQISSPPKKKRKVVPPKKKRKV", "test": "cell-based or functional assay", "units": {"Ub-ELuc luciferase, Dark, Dox 0 ng/mL": "relative", "Ub-ELuc luciferase, Dark, Dox 75 ng/mL": "relative", "Ub-ELuc luciferase, Light, Dox 0 ng/mL": "relative", "Ub-ELuc luciferase, Light, Dox 75 ng/mL": "relative", "Ub-ELuc luciferase, Dark, Dox 0 ng/mL, 36 h light": "relative", "Ub-ELuc luciferase, Dark, Dox 500 ng/mL, 36 h light": "relative", "Ub-ELuc luciferase, Light, Dox 0 ng/mL, 36 h light": "relative", "Ub-ELuc luciferase, Light, Dox 500 ng/mL, 36 h light": "relative"}}
{"binder": "rTetR (I194T, S2 mutation, 1-206)-CIB1 (-NLS) from the T2A construct (protein, part only; not given: Leftover T2A residues, part only) chain, part: MARLDKSKVINSALELLNGVGIEGLTTRKLAQKLGVEQPTLYWHVKNKRALLDALPIEMLDRHHTHFCPLEGESWQDFLRNNAKSFRCALLSHRDGAKVHLGTRPTEKQYETLENQLAFLCQQGFSLENALYALSAVGHFTLGCVLEEQEHQVAKEERETPTTDSMPPLLRQAIELFDRQGAEPAFLFGLELITCGLEKQLKCESGSPKKKHMEFNGAIGGDLLLNFPDMSVLERQRAHLKYLNPTFDSPLAGFFADSSMITGGEMDSYLSTAGLNLPMMYGETTVEGDSRLSISPETTLGTGNFKAAKFDTETKDCNEAAKKMTMNRDDLVEEGEEEKSKITEQNNGSTKSIKKMKHKAKKEENNFSNDSSKVTKELEKTDYI", "Average of the Light/Dark ratio, Dox 0 ng/mL": 2.2, "Average of the Light/Dark ratio, Dox 75 ng/mL": 17, "Light/Dark, Dox 0 ng/mL": 3.1, "Light/Dark, Dox 75 ng/mL": 3.1, "Ub-ELuc luciferase, Dark, Dox 0 ng/mL": 0.2, "Ub-ELuc luciferase, Dark, Dox 75 ng/mL": 0.2, "Ub-ELuc luciferase, Light, Dox 0 ng/mL": 0.5, "Ub-ELuc luciferase, Light, Dox 75 ng/mL": 0.7}
{"binder": "rTetR (I194T, rtTA mutation, 1-206)-CIB1 (-NLS) from the T2A construct (protein, part only; not given: Leftover T2A residues, part only) chain, part: MARLDKSKVINSALELLNEVGIEGLTTRKLAQKLGVEQPTLYWHVKNKRALLDALAIEMLDRHHTHFCPLKGESWQDFLRNNAKSFRCALLSHRNGAKVHSDTRPTEKQYETLENQLAFLCQQGFSLENALYALSAVGHFTLGCVLEDQEHQVAKEERETPTTDSMPPLLRQAIELFDHQGAEPAFLFGLELITCGLEKQLKCESGSPKKKHMEFNGAIGGDLLLNFPDMSVLERQRAHLKYLNPTFDSPLAGFFADSSMITGGEMDSYLSTAGLNLPMMYGETTVEGDSRLSISPETTLGTGNFKAAKFDTETKDCNEAAKKMTMNRDDLVEEGEEEKSKITEQNNGSTKSIKKMKHKAKKEENNFSNDSSKVTKELEKTDYI", "Average of the Light/Dark ratio, Dox 0 ng/mL": 3.2, "Average of the Light/Dark ratio, Dox 75 ng/mL": 22.5, "Light/Dark, Dox 0 ng/mL": 3.5, "Light/Dark, Dox 75 ng/mL": 3.4, "Ub-ELuc luciferase, Dark, Dox 0 ng/mL": 0.2, "Ub-ELuc luciferase, Dark, Dox 75 ng/mL": 0.1, "Ub-ELuc luciferase, Light, Dox 0 ng/mL": 0.5, "Ub-ELuc luciferase, Light, Dox 75 ng/mL": 0.4}
{"binder": "rTetR (I194T, M2 mutation, 1-206)-CIB1 (-NLS) from the T2A construct (protein, part only; not given: Leftover T2A residues, part only) chain, part: MARLDKSKVINGALELLNGVGIEGLTTRKLAQKLGVEQPTLYWHVKNKRALLDALPIEMLDRHHTHFCPLEGESWQDFLRNNAKSFRCALLSHRDGAKVHLGTRPTEKQYETLENQLAFLCQQGFSLENALYALSAVGHFTLGCVLEEQEHQVAKEERETPTTDSMPPLLRQAIELFDRQGAEPAFLFGLELITCGLEKQLKCESGSPKKKHMEFNGAIGGDLLLNFPDMSVLERQRAHLKYLNPTFDSPLAGFFADSSMITGGEMDSYLSTAGLNLPMMYGETTVEGDSRLSISPETTLGTGNFKAAKFDTETKDCNEAAKKMTMNRDDLVEEGEEEKSKITEQNNGSTKSIKKMKHKAKKEENNFSNDSSKVTKELEKTDYI", "Average of the Light/Dark ratio, Dox 0 ng/mL": 1.4, "Average of the Light/Dark ratio, Dox 75 ng/mL": 31.6, "Light/Dark, Dox 0 ng/mL": 1.1, "Light/Dark, Dox 75 ng/mL": 38.4, "Ub-ELuc luciferase, Dark, Dox 0 ng/mL": 0.3, "Ub-ELuc luciferase, Dark, Dox 75 ng/mL": 0.3, "Ub-ELuc luciferase, Light, Dox 0 ng/mL": 0.3, "Ub-ELuc luciferase, Light, Dox 75 ng/mL": 12.7}
{"binder": "rTetR (I194T, V10 mutation, 1-206)-CIB1 (-NLS) from the T2A construct (protein, part only; not given: Leftover T2A residues, part only) chain, part: MARLDKSKVINSALELLNGVGIEGLTTRKLAQKLGVEQPTLYWHVKNKRALLDALPIEMLDRHHTHSCPLEGESWQDFLRNNAKSYRCALLSHRDGAKVHLGTRPTEKQYETLENQLAFLCQQGFSLENALYALSAVGHFTLGCVLEEQEHQVAKEERETPTTDSMPPLLKQAIELFDRQGAEPAFLFGLELITCGLEKQLKCESGSPKKKHMEFNGAIGGDLLLNFPDMSVLERQRAHLKYLNPTFDSPLAGFFADSSMITGGEMDSYLSTAGLNLPMMYGETTVEGDSRLSISPETTLGTGNFKAAKFDTETKDCNEAAKKMTMNRDDLVEEGEEEKSKITEQNNGSTKSIKKMKHKAKKEENNFSNDSSKVTKELEKTDYI", "Average of the Light/Dark ratio, Dox 0 ng/mL": 1.3, "Average of the Light/Dark ratio, Dox 0 ng/mL, 36 h light": 9.6, "Average of the Light/Dark ratio, Dox 75 ng/mL": 32.8, "Average of the Light/Dark ratio, Dox 500 ng/mL, 36 h light": 959, "Light/Dark, Dox 0 ng/mL": 1.1, "Light/Dark, Dox 0 ng/mL, 36 h light": 9.2, "Light/Dark, Dox 75 ng/mL": 42.7, "Light/Dark, Dox 500 ng/mL, 36 h light": 412, "Ub-ELuc luciferase, Dark, Dox 0 ng/mL": 0.2, "Ub-ELuc luciferase, Dark, Dox 0 ng/mL, 36 h light": 3.6, "Ub-ELuc luciferase, Dark, Dox 75 ng/mL": 1.2, "Ub-ELuc luciferase, Dark, Dox 500 ng/mL, 36 h light": 22.8, "Ub-ELuc luciferase, Light, Dox 0 ng/mL": 0.2, "Ub-ELuc luciferase, Light, Dox 0 ng/mL, 36 h light": 25.3, "Ub-ELuc luciferase, Light, Dox 75 ng/mL": 51.7, "Ub-ELuc luciferase, Light, Dox 500 ng/mL, 36 h light": 9140}
